Measurements reported in patent publication US20220348651A1, “ENTPD2 ANTIBODIES, COMBINATION THERAPIES, AND METHODS OF USING THE ANTIBODIES AND COMBINATION THERAPIES” (Novartis AG, priority 2019, published 2022).

T1: mouse ENTPD2 (Mus musculus, UniProt O55026)
T1 construct: residues 29-462 of mouse or rat ENTPD2 (the extracellular domain); mouse IgK signal peptide (N); His6; made in house; host or cells: FreeStyle 293-F cells, transient transfection
T1 sequence (O55026 29-462): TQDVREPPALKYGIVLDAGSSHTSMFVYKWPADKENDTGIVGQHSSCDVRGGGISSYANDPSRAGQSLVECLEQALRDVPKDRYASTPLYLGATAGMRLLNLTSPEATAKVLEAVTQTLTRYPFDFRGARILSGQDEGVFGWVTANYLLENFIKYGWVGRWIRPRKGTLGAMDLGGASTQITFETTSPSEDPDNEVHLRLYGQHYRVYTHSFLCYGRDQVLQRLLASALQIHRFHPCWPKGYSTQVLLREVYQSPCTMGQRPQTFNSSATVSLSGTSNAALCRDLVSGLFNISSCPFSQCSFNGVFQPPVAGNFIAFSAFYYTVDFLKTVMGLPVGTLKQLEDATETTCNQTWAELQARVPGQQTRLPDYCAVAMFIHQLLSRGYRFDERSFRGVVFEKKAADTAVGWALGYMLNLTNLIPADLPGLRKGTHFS


Key:
[1] = tested on: B16LM3 tumor model; test: Syngeneic B16LM3 tumor model, combination with anti-PD-1 Ab; assay type: in vivo, C57BL/6 mice; details: mAb13 15 mg/kg in combination with anti-PD-1 Ab 10 mg/kg i.p., days 1, 5, 8, 12, 15; relative to No Treatment, Isotype Control or anti-PD-1 Ab
Description: B16LM3 model was established in female C57BL/6 mice by subcutaneous injection of 0.5×10^6 cells into the right flank of each mouse. The day after implant mice were randomized into treatment groups (n=10 per group). Mice received treatments of either anti-mouse ENTPD2 mAb13 or a non-specific mIgG2a isotype control (clone MOPC-173, BioLegend, San Diego, Calif.) at a final dose 15 mg/kg on Day 1, 5, 8, 12, 15.
Anti-PD-1 Ab (clone RMP1-14 Bio X Cell, West Lebanon, N.H.) or non-specific rIgG2a isotype control (clone RTK2758, BioLegend, San Diego, Calif.) were delivered i.p. at a final dose of 10 mg/kg on days 1, 5, 8, 12, 15. All doses were adjusted to individual mouse body weights.

[2] = molecular target: T1, mouse ENTPD2; test: Antibody specificity: binding to mouse ENTPD2; details: Mouse ENTPD2
From the text: Antibody specificity for mAbl-mAblO was confirmed. […] Antibodies mAb8, mAb9, and mAb10 show weak affinity to mouse ENTPD2. None of the selected antibodies bind to rat ENTPD2.

[3] = tested on: NIH/3T3 cells; test: Cross reactivity: FACS binding to NIH/3T3 control cells; details: 50 nM antibody
Description: FACS screening: Specific binding of candidate antibodies to endogenously expressed ENTPD2 was assessed by flow cytometry. Cells were rinsed thoroughly with 1×PBS and treated with Accutase (Millipore #SCR005) to lift from growth plates and resuspended at approximately 1×10^5 cells/90 μL in 1× FACS buffer (2% FBS+0.1% NaN3 in PBS). In a 96-well U-bottom plate, 10 μL of 10× antibody solution in FACS buffer was pre-seeded and 90 μL of cell suspension was added. Cell were incubated for 30 minutes at 4° C., washed 1× with cold PBS and resuspended in 100 μL of 1:500 secondary antibody 1× FACS buffer (Allophycocyanin conjugated F(ab′)2 goat anti-human IgG, Fcγ specific; Jackson Immunoresearch, Cat#109-136-098). After additional incubation for 15 min at 4° C., cells were washed twice with PBS and resuspended in 100 μL of 1×FACS buffer with 4 μg/mL propidium iodide (Life Technologies, Cat#P3566). Geometric mean fluorescence intensity was calculated on live single cells using FlowJo software.
Cross reactivity Human ENTPD1 (NP_001767) expressing NIH/3T3 cells were generated using a retroviral transduction approach. 72 hrs post transduction, engineered cells were stained with the anti-Human CD39/ENTPD1 APC-conjugated Antibody (R&D systems, Minneapolis, Minn.) and live cells that expressed human ENTPD1 were separated from the rest of the population via fluorescence activated cell sorting. […]

Molecule | mouse survival [1] | BIACore KD [2] | Apparent FACS binding at 50 nM [3]
mAb13: anti-mouse ENTPD2 antibody; HC SEQ ID NO: 193, LC SEQ ID NO: 204 (antibody) heavy: QVQLVQSGAELKQPGQSVKISCKASGYTFTHYGMNWVKQAPGQGLKWMGWINTDTGNPTYADDFKGRFVFSLDTSVSTAYLQISNLKNEDTATYYCVRYGTLYSGYGFFFDSWGQGTLVTVSSAKTTAPSVYPLAPVCGDTTGSSVTLGCLVKGYFPEPVTLTWNSGSLSSGVHTFPAVLQSDLYTLSSSVTVTSSTWPSQSITCNVAHPASSTKVDKKIEPRGPTIKPCPPCKCPAPNLLGGPSVFIFPPKIKDVLMISLSPIVTCVVVDVSEDDPDVQISWFVNNVEVHTAQTQTHREDYNSTLRVVSALPIQHQDWMSGKEFKCKVNNKDLPAPIERTISKPKGSVRAPQVYVLPPPEEEMTKKQVTLTCMVTDFMPEDIYVEWTNNGKTELNYKNTEPVLDSDGSYFMYSKLRVEKKNWVERNSYSCSVVHEGLHNHHTTKSFSRTPGK light: DIMMTQSPSSLSVSAGEKATITCKSSQSLFNSNTNKNYLNWYLQKPGQSPKLLFYYASTRHTGVPDRFIGSGSGTDFTLTITSVQDEDLADYYCQQWYSYPWTFGPGTKLEIKRADAAPTVSIFPPSSEQLTSGGASVVCFLNNFYPKDINVKWKIDGSERQNGVLNSWTDQDSKDSTYSMSSTLTLTKDEYERHNSYTCEATHKTSTSPIVKSFNRNEC | significantly extended mouse survival | – | –
mAb7: humanized anti-human ENTPD2 antibody from mAb17; VH SEQ ID NO: 25, VL SEQ ID NO: 78 (antibody, V domains shown) VH: QVQLVQSGAEVVKPGASVKISCKASGYTFTDYNMDWVKQAPGQRLEWIGDINPKYDISTYNQQFKGKATITVDKSASTAYMELSSLRSEDTAVYYCARRGFFLYYGINYYYFDVWGQGTLVTVSS VL: EIVLTQSPATLSASPGEEITLSCSASSSVSYIHWYQQKPGQAPRLLIYSTSNLASGIPARFSGSGSGTFYTLTISSVEPEDAAVYYCHQWSSYPWTFGGGTKLEIK | – | No binding | No binding
